The record followed here is publication PMC5988349 (Nature, 2018).

The target of data set [1] is β-actin subunit of pig dynactin (pig (endogenous in pig brain), UniProt Q6QAQ1 1-375). Kind of data set: cryo-EM structure.
The data set “cryo-EM structure” deals with the molecule itself. As to the kind of experiment: cryo-EM structure.

B1: dynein heavy chain (HC) residues 1-1455 (domain or fragment)
chain: MSEPGGGGGEDGSAGLEVSAVQNVADVSVLQKHLRKLVPLLLEDGGEAPAALEAALEEKSALEQMRKFLSDPQVHTVLVERSTLKEDVGDEGEEEKEFISYNINIDIHYGVKSNSLAFIKRTPVIDADKPVSSQLRVLTLSEDSPYETLHSFISNAVAPFFKSYIRESGKADRDGDKMAPSVEKKIAELEMGLLHLQQNIEIPEISLPIHPMITNVAKQCYERGEKPKVTDFGDKVEDPTFLNQLQSGVNRWIREIQKVTKLDRDPASGTALQEISFWLNLERALYRIQEKRESPEVLLTLDILKHGKRFHATVSFDTDTGLKQALETVNDYNPLMKDFPLNDLLSATELDKIRQALVAIFTHLRKIRNTKYPIQRALRLVEAISRDLSSQLLKVLGTRKLMHVAYEEFEKVMVACFEVFQTWDDEYEKLQVLLRDIVKRKREENLKMVWRINPAHRKLQARLDQMRKFRRQHEQLRAVIVRVLRPQVTAVAQQNQGEVPEPQDMKVAEVLFDAADANAIEEVNLAYENVKEVDGLDVSKEGTEAWEAAMKRYDERIDRVETRITARLRDQLGTAKNANEMFRIFSRFNALFVRPHIRGAIREYQTQLIQRVKDDIESLHDKFKVQYPQSQACKMSHVRDLPPVSGSIIWAKQIDRQLTAYMKRVEDVLGKGWENHVEGQKLKQDGDSFRMKLNTQEIFDDWARKVQQRNLGVSGRIFTIESTRVRGRTGNVLKLKVNFLPEIITLSKEVRNLKWLGFRVPLAIVNKAHQANQLYPFAISLIESVRTYERTCEKVEERNTISLLVAGLKKEVQALIAEGIALVWESYKLDPYVQRLAETVFNFQEKVDDLLIIEEKIDLEVRSLETCMYDHKTFSEILNRVQKAVDDLNLHSYSNLPIWVNKLDMEIERILGVRLQAGLRAWTQVLLGQAEDKAEVDMDTDAPQVSHKPGGEPKIKNVVHELRITNQVIYLNPPIEECRYKLYQEMFAWKMVVLSLPRIQSQRYQVGVHYELTEEEKFYRNALTRMPDGPVALEESYSAVMGIVSEVEQYVKVWLQYQCLWDMQAENIYNRLGEDLNKWQALLVQIRKARGTFDNAETKKEFGPVVIDYGKVQSKVNLKYDSWHKEVLSKFGQMLGSNMTEFHSQISKSRQELEQHSVDTASTSDAVTFITYVQSLKRKIKQFEKQVELYRNGQRLLEKQRFQFPPSWLYIDNIEGEWGAFNDIMRRKDSAIQQQVANLQMKIVQEDRAVESRTTDLLTDWEKTKPVTGNLRPEEALQALTIYEGKFGRLKDDREKCAKAKEALELTDTGLLSGSEERVQVALEELQDLKGVWSELSKVWEQIDQMKEQPWVSVQPRKLRQNLDALLNQLKSFPARLRQYASYEFVQRLLKGYMKINMLVIELKSEALKDRHWKQLMKRLHVNWVVSELTLGQIWDVDLQKNEAIVKDVLLVAQG
For B1, the binding result (in data set [1]; in “cryo-EM structure”) was “binds” each time.

B2: BICDR1 (BICD related-1), as used for the cryo-EM of TDR (natural protein)
chain: MSAFCLGLAGRASAPAEPDSACCMELPAGAGDAVRSPATAAALVSFPGGPGELELALEEELALLAAGERSSEPGEHPQAEPESPVEGHGPPLPPPPTQDPELLSVIRQKEKDLVLAARLGKALLERNQDMSRQYEQMHKELTDKLEHLEQEKHELRRRFENREGEWEGRVSELETDVKQLQDELERQQLHLREADREKTRAVQELSEQNQRLLDQLSRASEVERQLSMQVHALKEDFREKNSSTNQHIIRLESLQAEIKMLSDRKRELEHRLSATLEENDLLQGTVEELQDRVLILERQGHDKDLQLHQSQLELQEVRLSYRQLQGKVEELTEERSLQSSAATSTSLLSEIEQSMEAEELEQEREQLRLQLWEAYCQVRYLCSHLRGNDSADSAVSTDSSMDESSETSSAKDVPAGSLRTALNDLKRLIQSIVDGVEPTVTLLSVEMTALKEERDRLRVTSEDKEPKEQLQKAIRDRDEAIAKKNAVELELAKCKMDMMSLNSQLLDAIQQKLNLSQQLEAWQDDMHRVIDRQLMDTHLKEQSRPAAAAFPRGHGVGRGQEPSTADGKRLFSFFRKI
In the case of B2, in the data set “cryo-EM structure”, the binding result was “binds”.
